First the molecules themselves.
B1: NRC3_random_hg19_440_o1 (dsDNA)
DNA 1: GCGAAGGAGTTCTTATCTGGCCAGTTCCCATCCTGTGCGATTGACAGCGTAGAATGAAGG
DNA 2: CCTTCATTCTACGCTGTCAATCGCACAGGATGGGAACTGGCCAGATAAGAACTCCTTCGC
B2: NRC3_wobSeed134_DR5_T8G_o1 (dsDNA)
DNA 1: GCGCTGCGAGGTCAACTGATGGTCAGCTAAAGCTCGGCGATTGACAGCGTAGAATGAAGG
DNA 2: CCTTCATTCTACGCTGTCAATCGCCGAGCTTTAGCTGACCATCAGTTGACCTCGCAGCGC
B3: NRC3_wobSeed22_DR0_G13C_o1 (dsDNA)
DNA 1: GCTTACCAAGGTCAAGGTCGTTGATCCCTCTGTAGAGCGATTGACAGCGTAGAATGAAGG
DNA 2: CCTTCATTCTACGCTGTCAATCGCTCTACAGAGGGATCAACGACCTTGACCTTGGTAAGC
B4: NRC3_random_hg19_202_o1 (dsDNA)
DNA 1: GCTCTCTGGTACCAGTGAAGAAGACGTCCAGGTGGCGCGATTGACAGCGTAGAATGAAGG
DNA 2: CCTTCATTCTACGCTGTCAATCGCGCCACCTGGACGTCTTCTTCACTGGTACCAGAGAGC
B5: NRC3_random_hg19_324_o1 (dsDNA)
DNA 1: GCCAGTGATGCACACCTGTAACCCTAGCACTTTGGGGCGATTGACAGCGTAGAATGAAGG
DNA 2: CCTTCATTCTACGCTGTCAATCGCCCCAAAGTGCTAGGGTTACAGGTGTGCATCACTGGC
B6: NRC3_wobSeed1_DR0_C7A_o1 (dsDNA)
DNA 1: GCCAAAATAGGTCAAGGTCAAAGTCGGTTTGTGCCAGCGATTGACAGCGTAGAATGAAGG
DNA 2: CCTTCATTCTACGCTGTCAATCGCTGGCACAAACCGACTTTGACCTTGACCTATTTTGGC
B7: NRC3_random_hg19_141_o1 (dsDNA)
DNA 1: GCATTCTACCACTTCTTGCACCTAGTGCTGCTGTTCGCGATTGACAGCGTAGAATGAAGG
DNA 2: CCTTCATTCTACGCTGTCAATCGCGAACAGCAGCACTAGGTGCAAGAAGTGGTAGAATGC
B8: NRC3_random_hg19_357_o1 (dsDNA)
DNA 1: GCAACAGATTTCATTGAGGTGATCTACTTCGTTTCTGCGATTGACAGCGTAGAATGAAGG
DNA 2: CCTTCATTCTACGCTGTCAATCGCAGAAACGAAGTAGATCACCTCAATGAAATCTGTTGC
B9: NRC3_wobSeed4_DR0_A20T_o1 (dsDNA)
DNA 1: GCCCTACTGGGCCAAGGTCTTTGATCAGTCAAAGCAGCGATTGACAGCGTAGAATGAAGG
DNA 2: CCTTCATTCTACGCTGTCAATCGCTGCTTTGACTGATCAAAGACCTTGGCCCAGTAGGGC
B10: NRC3_wobSeed13_DR0_A15C_o1 (dsDNA)
DNA 1: GCCGTCCAAGGTCACGGTCAGTGAAAGAGACTCGAAGCGATTGACAGCGTAGAATGAAGG
DNA 2: CCTTCATTCTACGCTGTCAATCGCTTCGAGTCTCTTTCACTGACCGTGACCTTGGACGGC
B11: NRC3_random_hg19_291_o1 (dsDNA)
DNA 1: GCGAGCAAAGGGACTTCTTAGATGGTGGTGGGCAAGGCGATTGACAGCGTAGAATGAAGG
DNA 2: CCTTCATTCTACGCTGTCAATCGCCTTGCCCACCACCATCTAAGAAGTCCCTTTGCTCGC
B12: NRC3_wobSeed135_DR5_G10A_o1 (dsDNA)
DNA 1: GCCGAACTAAGTCATTGACAGGACAGTGAATAGTAAGCGATTGACAGCGTAGAATGAAGG
DNA 2: CCTTCATTCTACGCTGTCAATCGCTTACTATTCACTGTCCTGTCAATGACTTAGTTCGGC
B13: NRC3_random_hg19_482_o1 (dsDNA)
DNA 1: GCCATCCTGTAAGACACTTCCTCTAAGAAATGGCTAGCGATTGACAGCGTAGAATGAAGG
DNA 2: CCTTCATTCTACGCTGTCAATCGCTAGCCATTTCTTAGAGGAAGTGTCTTACAGGATGGC
B14: NRC3_random_hg19_320_o1 (dsDNA)
DNA 1: GCCACACTTGCAGAGGAGAAAGGAGTTTGGAAAGCCGCGATTGACAGCGTAGAATGAAGG
DNA 2: CCTTCATTCTACGCTGTCAATCGCGGCTTTCCAAACTCCTTTCTCCTCTGCAAGTGTGGC
B15: NRC3_random_hg19_437_o1 (dsDNA)
DNA 1: GCCGTGTTGGCAGGTGCCTGTACTCTCAGCTACTCGGCGATTGACAGCGTAGAATGAAGG
DNA 2: CCTTCATTCTACGCTGTCAATCGCCGAGTAGCTGAGAGTACAGGCACCTGCCAACACGGC
B16: NRC3_random_hg19_72_o1 (dsDNA)
DNA 1: GCTCCCAACTAGCTGGAACTACAGGCACCTGCCACCGCGATTGACAGCGTAGAATGAAGG
DNA 2: CCTTCATTCTACGCTGTCAATCGCGGTGGCAGGTGCCTGTAGTTCCAGCTAGTTGGGAGC
B17: NRC3_random_hg19_434_o1 (dsDNA)
DNA 1: GCCACATGAAAGCTGACAACAGAAGCACTCCAACACGCGATTGACAGCGTAGAATGAAGG
DNA 2: CCTTCATTCTACGCTGTCAATCGCGTGTTGGAGTGCTTCTGTTGTCAGCTTTCATGTGGC
B18: NRC3_wobSeed87_DR3_G10A_o1 (dsDNA)
DNA 1: GCCGAACTAAGTCATCCAGGACAGTGAATACATTGAGCGATTGACAGCGTAGAATGAAGG
DNA 2: CCTTCATTCTACGCTGTCAATCGCTCAATGTATTCACTGTCCTGGATGACTTAGTTCGGC
B19: NRC3_random_hg19_411_o1 (dsDNA)
DNA 1: GCATTGAGCAGGTGTTGATTACAAATGAGATGTTTCGCGATTGACAGCGTAGAATGAAGG
DNA 2: CCTTCATTCTACGCTGTCAATCGCGAAACATCTCATTTGTAATCAACACCTGCTCAATGC
B20: NRC3_wobSeed69_DR2_G10T_o1 (dsDNA)
DNA 1: GCAGTCAAATTTCACTAGGTAACGTAAGATTCAGCTGCGATTGACAGCGTAGAATGAAGG
DNA 2: CCTTCATTCTACGCTGTCAATCGCAGCTGAATCTTACGTTACCTAGTGAAATTTGACTGC
B21: NRC3_random_hg19_283_o1 (dsDNA)
DNA 1: GCTAGCTTACCTGGATCCACTTGGCCACTAGATTTGGCGATTGACAGCGTAGAATGAAGG
DNA 2: CCTTCATTCTACGCTGTCAATCGCCAAATCTAGTGGCCAAGTGGATCCAGGTAAGCTAGC
B22: NRC3_random_hg19_369_o1 (dsDNA)
DNA 1: GCCAACCCTCTTTCATGTCTGTAAGGAGCTTACCTGGCGATTGACAGCGTAGAATGAAGG
DNA 2: CCTTCATTCTACGCTGTCAATCGCCAGGTAAGCTCCTTACAGACATGAAAGAGGGTTGGC
B23: NRC3_random_hg19_306_o1 (dsDNA)
DNA 1: GCAGAGCCCACTTCACTTCCTCAGAAACAGCCCTCCGCGATTGACAGCGTAGAATGAAGG
DNA 2: CCTTCATTCTACGCTGTCAATCGCGGAGGGCTGTTTCTGAGGAAGTGAAGTGGGCTCTGC
B24: NRC3_random_hg19_268_o1 (dsDNA)
DNA 1: GCTGTTCTTTGGCAGTCTAGAGAATCAGAAGAGCAAGCGATTGACAGCGTAGAATGAAGG
DNA 2: CCTTCATTCTACGCTGTCAATCGCTTGCTCTTCTGATTCTCTAGACTGCCAAAGAACAGC
B25: NRC3_wobSeed23_DR0_G12T_o1 (dsDNA)
DNA 1: GCGGAACGAGGTCAAGTTGATAGCAGAGTTTGATGGGCGATTGACAGCGTAGAATGAAGG
DNA 2: CCTTCATTCTACGCTGTCAATCGCCCATCAAACTCTGCTATCAACTTGACCTCGTTCCGC
B26: NRC3_random_hg19_52_o1 (dsDNA)
DNA 1: GCCCAGGAGCAGTGGCTCACGCCTGTAATCCCAGCAGCGATTGACAGCGTAGAATGAAGG
DNA 2: CCTTCATTCTACGCTGTCAATCGCTGCTGGGATTACAGGCGTGAGCCACTGCTCCTGGGC

PPARa:RXRa, sequence (Q07869 whole entry, chain 1 of 2): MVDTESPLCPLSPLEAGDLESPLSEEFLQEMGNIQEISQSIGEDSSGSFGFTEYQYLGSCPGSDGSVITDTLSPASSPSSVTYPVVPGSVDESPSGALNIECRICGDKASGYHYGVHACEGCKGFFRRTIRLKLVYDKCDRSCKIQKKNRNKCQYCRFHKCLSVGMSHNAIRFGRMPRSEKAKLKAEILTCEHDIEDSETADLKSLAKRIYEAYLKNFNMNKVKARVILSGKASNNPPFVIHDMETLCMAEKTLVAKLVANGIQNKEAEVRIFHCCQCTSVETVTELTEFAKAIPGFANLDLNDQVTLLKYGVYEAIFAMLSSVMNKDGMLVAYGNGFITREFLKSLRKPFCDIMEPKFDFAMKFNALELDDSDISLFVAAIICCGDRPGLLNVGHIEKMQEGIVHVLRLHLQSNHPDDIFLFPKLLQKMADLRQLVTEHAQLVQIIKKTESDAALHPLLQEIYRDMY
PPARa:RXRa, sequence (P19793 whole entry, chain 2 of 2): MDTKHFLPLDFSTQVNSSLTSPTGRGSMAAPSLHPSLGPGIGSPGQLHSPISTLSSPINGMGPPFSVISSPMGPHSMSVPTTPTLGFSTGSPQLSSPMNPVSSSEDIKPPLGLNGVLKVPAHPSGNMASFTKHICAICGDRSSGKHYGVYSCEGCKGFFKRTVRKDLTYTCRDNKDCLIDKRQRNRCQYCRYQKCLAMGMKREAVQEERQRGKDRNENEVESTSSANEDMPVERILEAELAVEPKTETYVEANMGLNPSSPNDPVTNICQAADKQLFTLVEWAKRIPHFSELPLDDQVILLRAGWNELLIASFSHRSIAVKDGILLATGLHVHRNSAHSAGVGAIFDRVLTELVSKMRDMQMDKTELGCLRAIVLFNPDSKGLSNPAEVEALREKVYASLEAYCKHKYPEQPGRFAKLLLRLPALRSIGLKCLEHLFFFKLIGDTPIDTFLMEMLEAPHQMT

One data set deals with RARb:RXRa (Homo sapiens, UniProt P10826;P19793 full;full). Nature of the data set: no ligand; PBM; 270 nM : 90 nM RXRa; PBS pH 7.4, 2% milk, 0.02% Triton X-100, 1 mM DTT, BSA, 0.4 mg/ml salmon testes DNA. As to conditions: tags: His kept;His cleaved; copies: 1;1; label: surface-attached array probe. The gist of the method: (§1)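 Ligand-free nuclear receptor dimers were bound for 1 h to custom Agilent 4×180K protein-binding microarrays. Detection used antibodies against each partner (one per run). Binding z-scores rest on regression-normalized fluorescence, with random background probes as the reference.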
RARb:RXRa, sequence (P10826 whole entry, chain 1 of 2): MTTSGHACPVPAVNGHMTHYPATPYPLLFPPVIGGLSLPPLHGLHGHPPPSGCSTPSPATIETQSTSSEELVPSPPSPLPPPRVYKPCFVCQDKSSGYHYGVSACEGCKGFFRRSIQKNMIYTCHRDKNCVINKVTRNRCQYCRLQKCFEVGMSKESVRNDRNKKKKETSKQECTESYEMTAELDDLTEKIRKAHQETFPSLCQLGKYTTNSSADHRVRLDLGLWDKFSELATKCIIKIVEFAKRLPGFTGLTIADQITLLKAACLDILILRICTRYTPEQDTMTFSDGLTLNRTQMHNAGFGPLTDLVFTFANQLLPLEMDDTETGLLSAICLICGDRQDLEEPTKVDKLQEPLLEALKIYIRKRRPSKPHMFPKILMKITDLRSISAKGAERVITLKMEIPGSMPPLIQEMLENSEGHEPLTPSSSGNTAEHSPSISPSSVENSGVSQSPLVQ
RARb:RXRa, sequence (P19793 whole entry, chain 2 of 2): as the sequence (P19793 whole entry, chain 2 of 2) above
For B1, the binding signal is -0.36 PBM z-score against 500 random probes.
As to B2, the binding signal is 5.49 PBM z-score against 500 random probes.
Still for that read-out and setting: with B3 the figure was 5.5 PBM z-score against 500 random probes; with B4, -0.14 PBM z-score against 500 random probes.
Still for that read-out and setting: the same measure for B5: 0.04 PBM z-score against 500 random probes.
The same measure, in the same setting: the same measure for B6: 5.5 PBM z-score against 500 random probes.
Regarding B7, the binding signal is 0.19 PBM z-score against 500 random probes.
On to B8, for which the binding signal was -0.12 PBM z-score against 500 random probes.
For the molecule B9, the binding signal is 0.33 PBM z-score against 500 random probes.
On the same count and under the same terms, with B10 the figure was 5.97 PBM z-score against 500 random probes; with B11, -0.49 PBM z-score against 500 random probes.
Still for that read-out and setting: the same measure for B12: 0.2 PBM z-score against 500 random probes; for B13: -0.03 PBM z-score against 500 random probes.
The same measure, in the same setting: with B14 the figure was -0.07 PBM z-score against 500 random probes; with B15, -0.44 PBM z-score against 500 random probes; with B16, -0.32 PBM z-score against 500 random probes.
With B17, the binding signal is -0.24 PBM z-score against 500 random probes.
On the same count and under the same terms, with B18 the figure was 0.37 PBM z-score against 500 random probes; with B19, 0 PBM z-score against 500 random probes; with B20, 0.27 PBM z-score against 500 random probes.
For the molecule B21, the binding signal is -0.42 PBM z-score against 500 random probes.
On to B22, for which the binding signal was 0.12 PBM z-score against 500 random probes.
Same read-out and setting: the same measure for B23: -0.38 PBM z-score against 500 random probes; for B24: -1.08 PBM z-score against 500 random probes; for B25: 5.45 PBM z-score against 500 random probes.
On to B26, for which the binding signal is -0.55 PBM z-score against 500 random probes.

The next data set concerns the target PPARa:RXRa (Homo sapiens, UniProt Q07869;P19793 full;full). The description is as above. As to conditions: tags: GST kept;His cleaved; copies: 1;1; label: surface-attached array probe. The gist of the method:
as §1
As for B1, the binding signal was -0.35 PBM z-score against 500 random probes.
On the same count and under the same terms, the same measure for B6: 6.51 PBM z-score against 500 random probes; for B7: 0.17 PBM z-score against 500 random probes; for B9: 0.29 PBM z-score against 500 random probes.
As for B14, the binding signal is -0.22 PBM z-score against 500 random probes.
Same read-out and setting: the same measure for B15: -0.58 PBM z-score against 500 random probes; for B16: 0.23 PBM z-score against 500 random probes.
On to B19, for which the binding signal was 0.03 PBM z-score against 500 random probes.
For B20, the binding signal is 0.35 PBM z-score against 500 random probes.
Still for that read-out and setting: with B23 the figure was -0.34 PBM z-score against 500 random probes.
With B26, the binding signal is -0.74 PBM z-score against 500 random probes.

The target of a further data set is FXR:RXRa (Homo sapiens, UniProt Q96RI1;P19793 full;full). The data set is described as above. Particulars: tags: His kept;His cleaved; copies: 1;1; label: surface-attached array probe. The gist of the method: as §1
FXR:RXRa, sequence (Q96RI1 whole entry, chain 1 of 2): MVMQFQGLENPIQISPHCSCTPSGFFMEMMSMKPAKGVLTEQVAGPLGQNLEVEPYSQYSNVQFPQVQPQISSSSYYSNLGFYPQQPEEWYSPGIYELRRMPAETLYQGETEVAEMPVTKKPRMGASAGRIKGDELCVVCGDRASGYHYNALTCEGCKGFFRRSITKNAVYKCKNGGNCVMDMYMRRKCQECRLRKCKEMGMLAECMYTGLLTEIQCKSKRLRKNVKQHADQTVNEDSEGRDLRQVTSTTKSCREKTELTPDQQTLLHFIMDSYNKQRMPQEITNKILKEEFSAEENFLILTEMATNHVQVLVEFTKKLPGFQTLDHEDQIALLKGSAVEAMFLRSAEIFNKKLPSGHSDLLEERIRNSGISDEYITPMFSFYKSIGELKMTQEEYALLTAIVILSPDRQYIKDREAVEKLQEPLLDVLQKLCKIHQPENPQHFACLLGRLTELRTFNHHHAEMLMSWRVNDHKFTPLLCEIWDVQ
FXR:RXRa, sequence (P19793 whole entry, chain 2 of 2): as the sequence (P19793 whole entry, chain 2 of 2) above
On to B2, for which the binding signal was 7.7 PBM z-score against 500 random probes.
The same measure, in the same setting: the same measure for B3: 7.79 PBM z-score against 500 random probes; for B10: 8.3 PBM z-score against 500 random probes.
As to B14, the binding signal is 0.28 PBM z-score against 500 random probes.
Same read-out and setting: the same measure for B22: 0.38 PBM z-score against 500 random probes; for B25: 8.18 PBM z-score against 500 random probes.

Another data set deals with RARg:RXRa (Homo sapiens, UniProt P13631;P19793 full;full). The data set is described as above. As to conditions: tags: His kept;His cleaved; copies: 1;1; label: surface-attached array probe. The gist of the method: as §1
RARg:RXRa, sequence (P13631 whole entry, chain 1 of 2): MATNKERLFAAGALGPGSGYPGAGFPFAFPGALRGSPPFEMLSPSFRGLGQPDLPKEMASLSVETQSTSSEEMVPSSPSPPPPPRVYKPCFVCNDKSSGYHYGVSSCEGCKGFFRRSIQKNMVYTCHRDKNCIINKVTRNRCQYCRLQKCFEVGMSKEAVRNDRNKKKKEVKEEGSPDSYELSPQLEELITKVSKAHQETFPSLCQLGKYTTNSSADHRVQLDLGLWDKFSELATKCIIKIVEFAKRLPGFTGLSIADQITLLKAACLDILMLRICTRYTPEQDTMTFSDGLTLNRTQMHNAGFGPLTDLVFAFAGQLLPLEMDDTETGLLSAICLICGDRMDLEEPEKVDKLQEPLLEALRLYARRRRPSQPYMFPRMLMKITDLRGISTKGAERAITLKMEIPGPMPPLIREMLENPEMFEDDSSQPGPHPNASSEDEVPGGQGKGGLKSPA
RARg:RXRa, sequence (P19793 whole entry, chain 2 of 2): as the sequence (P19793 whole entry, chain 2 of 2) above
As to B1, the binding signal is -0.83 PBM z-score against 500 random probes.
On the same count and under the same terms, the same measure for B2: 7.43 PBM z-score against 500 random probes; for B12: 0.48 PBM z-score against 500 random probes.
The same measure, in the same setting: the same measure for B13: 0.13 PBM z-score against 500 random probes.
The same measure, in the same setting: the same measure for B18: 0.43 PBM z-score against 500 random probes.
As for B22, the binding signal was -0.32 PBM z-score against 500 random probes.

These data come from article PMC6555819, “Comprehensive study of nuclear receptor DNA binding provides a revised framework for understanding receptor specificity”.
